Changes are numbered by the printed parent chain.
How the values were obtained:
[1] = target: T1, hANGPTL4(26-148)-mFc (Homo sapiens, UniProt Q9BY76); assay: BIACORE, full mAb or Fab over anti-mFc captured hANGPTL4(26-148)-mFc; assay type: binding
T1 construct: amino acid residues 26-148 of human ANGPTL4 fused in-line to mouse IgG2a (hANGPTL4-mFc)

[2] = test system: humanized ANGPTL4 mice; assay: Serum TG levels in humanized ANGPTL4 mice; assay type: in vivo, mouse; settings: for Serum TG: mean±SEM
Experimental: The effect of anti-hANGPTL4 antibodies H1H268P and H1H284P on serum TG levels was determined in mice expressing the ANGPTL4 protein containing the human N-terminal coil-coil region (“humanized ANGPTL4 mice”). The humanized ANGPTL4 mouse was made by replacing first three exons of the mouse Angptl4 gene (the N terminal coil-coil region) with the corresponding human N-terminal coil-coil ANGPLT4 sequence in C57BL6/129 (F1H4) embryonic stem cells. After germ line transmission was established, heterozygous mice (ANGPTL4hum/+) were bred together to generate homozygous mice [ANGPTL4hum/hum or hANGPTL4(+/+)] on a C57BL6 background. Humanized ANGPTL4 mice were pre-bled 7 days before (day −7) the experiment and put into groups of six mice each for each antibody tested. Antibodies (H1H268P, H1H284P and isotype-matched (hIgG1) control with no known cross-reactivity to mouse antigens) were administered at 10 mg/kg dose by subcutaneous injection. Mice were bled after 4 hours of fasting at days 1, 4, 7 and 11 after antibody injection; and serum TG levels were determined by ADVIA® 1800 Chemistry System (Siemens). Average TG levels were calculated for each time point for each antibody.
The effect of anti-hANGPTL4 antibodies, H4H268P2 and H4H284P, on serum TG levels was determined in humanized ANGPTL4 mice. Humanized ANGPTL4 mice were pre-bled 7 days before the experiment and put into groups of six mice each for each antibody tested. Antibodies (H4H268P2, H4H284P and isotype-matched (hIgG4) control with no known cross-reactivity to mouse antigens) were administered at 10 mg/kg dose by subcutaneous injection. Mice were bled after 4 hours of fasting at days 1, 4, 7 and 11 after antibody injection; and TG levels were determined in the serum by ADVIA® 1800 Chemistry System (Siemens). Average TG levels were calculated for each time point for each antibody.

[3] = test system: C57BL/6 mice given hANGPTL4-mFc; assay type: in vivo; settings: antibody 5 mg/kg s.c.; 24 h later hANGPTL4-mFc 25 μg/mouse i.v.; bled 30 min after; mean±SEM
Experimental: In another set of experiments, selected anti-hANGPTL4 antibodies were tested for their ability to inhibit hANGPTL4-induced increase of triglyceride levels. Measurements of total cholesterol, LDL, NEFA-C and HDL were also made. Briefly, C57BL/6 mice were put into groups of five mice each for each antibody tested. Antibodies were administered at 5 mg/kg dose by subcutaneous injection. Control group I, i.e., mice that received neither anti-hANGPTL4 antibodies nor hANGPTL4, were administered with PBS. Twenty-four hours post-injection of antibody, hANGPTL4-mFc (SEQ ID NO:480) was administered (i.v.) at a dose of 25 μg/mouse to each antibody group. Mice were bled at 30 min after hANGPTL4-mFc injection and lipid levels were determined by ADVIA® 1650 Chemistry System (Siemens). Averages were calculated for each of the measurements of triglycerides, total cholesterol (Total-C), LDL, NEFA-C and HDL for each antibody or control group. Levels of circulating anti-hANGPTL4 antibodies (Serum Ab) were also determined using a standard ELISA assay. Briefly, plates were coated with a goat anti-human Fc antibody (Sigma-Aldrich) to capture Serum Ab. Serum was then added to the plates and captured anti-hANGPTL4 antibodies were detected by chemiluminescence using a horseradish peroxidase (HRP) conjugated goat anti-human IgG antibody (Sigma-Aldrich). Control I: Mice that received PBS, but neither anti-hANGPTL4 antibodies nor hANGPTL4-mFc. Control II: Mice that received a human antibody specific for CD20 (i.e., the mAb having the sequence of 2F2 clone disclosed in US 2008/0260641) and hANGPTL4-mFc.

[4] = target: T2, hANGPTL4-His (Homo sapiens, UniProt Q9BY76); assay: BIACORE cross-reactivity, amine coupled hANGPTL4-His; assay type: binding; settings: for Specific RU, hANGPTL4-His: chip surface 6247 RU, mAb injected at 3.125-50 μg/mL
T2 construct: purchased R&D Systems 4487-AN
T2 sequence (Q9BY76 26-406): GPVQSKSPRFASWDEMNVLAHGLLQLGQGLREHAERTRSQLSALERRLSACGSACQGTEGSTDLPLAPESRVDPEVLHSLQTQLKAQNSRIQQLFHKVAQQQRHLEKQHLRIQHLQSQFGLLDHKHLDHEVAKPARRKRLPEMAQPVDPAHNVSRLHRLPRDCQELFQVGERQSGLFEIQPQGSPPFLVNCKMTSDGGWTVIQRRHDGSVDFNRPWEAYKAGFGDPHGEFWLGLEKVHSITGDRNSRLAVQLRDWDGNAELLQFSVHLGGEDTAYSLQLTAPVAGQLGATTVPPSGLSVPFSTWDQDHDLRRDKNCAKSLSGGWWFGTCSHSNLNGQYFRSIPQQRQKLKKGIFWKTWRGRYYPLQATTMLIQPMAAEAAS
Experimental: Possible cross-reactivity of the anti-hANGPTL4 antibodies to related proteins, i.e., hANGPTL3, human angiopoietin-like protein 5 (hANGPTL5) and mouse ANGPTL4 (mANGPTL4), was tested for the selected antibodies, i.e., H1H268P and H1H284P, using the BIACORE™ system. Briefly, anti-hANGPTL4 antibodies as well as negative controls, i.e., two monoclonal antibodies (Control a and Control b) that are non-binders to any ANGPTL proteins, were injected at 3.125 μg/mL-50 μg/mL over amine coupled chip surfaces of hANGPTL3-His (R&D Systems, cat #3829-AN) at 5228 RU, hANGPTL4-His (R&D Systems, cat #4487-AN) at 6247 RU, hANGPTL5-His (Abnova Corp., cat #H00253935-P01) at 5265 RU, and mANGPTL4-His [R26-S410 of mANGPTL4 (SEQ ID NO: 478) fused with an AS linker to a C-terminal 6-histidine tag] at 5233 RU, respectively. A polyclonal antibody specific for hANGPTL3 (R&D System, cat #BAF3485) was also tested.

[5] = pH 5.75, 25° C., antigen captured 27 ± 0.6 RU
[6] = pH 7.2, 25° C., antigen captured 35 ± 1.9 RU
[7] = day 1 after injection, 10 mg/kg s.c., 4 h fasting
[8] = day 4 after injection, 10 mg/kg s.c., 4 h fasting
[9] = day 7 after injection, 10 mg/kg s.c., 4 h fasting
[10] = day 11 after injection, 10 mg/kg s.c., 4 h fasting

T1 sequence (Q9BY76 with tags, fused parts or gaps): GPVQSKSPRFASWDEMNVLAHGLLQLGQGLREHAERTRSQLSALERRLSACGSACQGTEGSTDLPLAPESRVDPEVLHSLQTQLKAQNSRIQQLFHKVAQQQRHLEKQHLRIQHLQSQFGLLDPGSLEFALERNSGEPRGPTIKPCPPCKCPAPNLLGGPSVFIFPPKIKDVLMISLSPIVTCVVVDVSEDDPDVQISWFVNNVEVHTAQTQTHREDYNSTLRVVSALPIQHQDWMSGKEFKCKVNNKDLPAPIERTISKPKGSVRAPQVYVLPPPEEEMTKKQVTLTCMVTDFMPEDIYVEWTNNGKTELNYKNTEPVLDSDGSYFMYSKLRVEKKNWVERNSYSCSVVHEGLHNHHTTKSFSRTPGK

B1: H1H284P: anti-hANGPTL4 antibody, hIgG1 isotype, HCVR/LCVR SEQ ID NOs 90/92 (antibody, V domains shown)
VH: QVQLVESGGGVVQPGRSLRLSCAASGFTFSSYGMHWVRQAPGKGLEWMAVISFDGGNKNNADSVKGRFTISRDNSKNTLYLQMNSLRAEDTAVYYCAKEGDRSGHPYFYYYGLDVWGQGTTVTVS
VL: DIQLTQSPSFLSASVGDRVTITCWASQGISSYLAWYQQKPGKAPKLLIYAASTLQSGVPSRFSGSGSETEFTLTISSLQPEDFATYYCQQLHSYPLTFGGGTKVEIK
- Response bound at 50 nM mAb or Fab (RU) [1, 5]: 171
- Response bound at 50 nM mAb or Fab (RU) [1, 6]: 99
- Serum TG [2, 7]: 125 ± 18 mg/dL
- Serum TG [2, 8]: 67 ± 9.8 mg/dL
- Serum TG [2, 9]: 91 ± 7.2 mg/dL
- TG levels relative to control, in words ([2]; day 11 after injection, 10 mg/kg s.c.): increased back to control level
- Serum TG [2, 10]: 109 ± 11 mg/dL
- Serum TG ([2]; day −7 (pre-bleed)): 113 ± 11 mg/dL
- HDL [3]: 39.60 ± 3.46 mg/dL
- LDL [3]: 4.98 ± 0.87 mg/dL
- NEFA-C [3]: 0.99 ± 0.11 mg/dL
- Total-C [3]: 80.80 ± 6.40 mg/dL
- Triglycerides [3]: 99.20 ± 9.52 mg/dL
- binding to hANGPTL4-His, in words [4]: bound specifically
- Specific RU, hANGPTL4-His [4]: 1351 RU

B2: H1H268P: anti-hANGPTL4 antibody, hIgG1 isotype, HCVR/LCVR SEQ ID NOs 42/44 (antibody, V domains shown)
VH: QVQLQESGAGLLKPSETLSLTCTVYGGSFSIHHWTWIRHPPGKGLEWIGEINHRGSTNYNPSLKSRVTISIDTSKNQFSLKLSAVTAADTAVYYCARGLRFLDWLSSYFDYWGQGTLVTVSS
VL: DIQMTQSPSSLSASVGDRVTITCRASQGISDYLAWYQQKPGKVPNLLIYAASALQSGVPSRFSGSGSGTDFTLTISSLQPEDVATYYCQNYNTAPLTFGGGTKVEIK
- Response bound at 50 nM mAb or Fab (RU) [1, 5]: 77
- Response bound at 50 nM mAb or Fab (RU) [1, 6]: 40
- reduction in circulating TG compared to isotype-matched control antibody ([2]; 4-11 days after administration, 10 mg/kg s.c.): 25-30%
- Serum TG [2, 7]: 129.8 ± 5.6 mg/dL
- Serum TG [2, 8]: 73.3 ± 8.9 mg/dL
- Serum TG [2, 9]: 83 ± 14 mg/dL
- Serum TG ([2]; day −7 (pre-bleed)): 112 ± 9.3 mg/dL
- HDL [3]: 35.94 ± 1.64 mg/dL
- LDL [3]: 4.94 ± 0.51 mg/dL
- NEFA-C [3]: 0.82 ± 0.04 mg/dL
- Triglycerides [3]: 92.60 ± 11.44 mg/dL
- binding to hANGPTL4-His, in words [4]: bound specifically
- Specific RU, hANGPTL4-His [4]: 768 RU

B3: H4H268P2: IgG4 version of H1H268P with a single amino acid substitution in framework region 1, HCVR/LCVR SEQ ID NOs 487/44 (antibody, V domains shown)
VH: B2 VH with E6Q
VL: B2 VL
modifications: IgG4 constant region
- reduction in circulating TG compared to isotype-matched control antibody, in words ([2]; day 1, 10 mg/kg s.c.): significant reduction
- Serum TG [2, 7]: 81 ± 6.8 mg/dL
- reduction in circulating TG compared to isotype-matched control antibody, in words ([2]; day 4, 10 mg/kg s.c.): significant reduction
- Serum TG [2, 8]: 67 ± 5.3 mg/dL
- Serum TG [2, 9]: 56 ± 7.1 mg/dL
- Serum TG [2, 10]: 87 ± 8.7 mg/dL
- Serum TG ([2]; day −7 (pre-bleed)): 101 ± 9.3 mg/dL

From US9120851B2, “Human antibodies to human angiopoietin-like protein 4” (Regeneron Pharmaceuticals, Inc., priority 2009, dated 2015)
